Source: article PMC4470286 (Genes & Development, 2015)

B3: N-Fob1-GST, purified from yeast (domain or fragment, S. cerevisiae, UniProt O13329 1-429, looked up)
chain: MTKPRYNDVLFDDDDSVPSESVTRKSQRRKATSPGESRESSKDRLLILPSMGESYTEYVDSYLNLELLERGERETPIFLESLTRQLTQKIYELIKTKSLTADTLQQISDKYDGVVAENKLLFLQRQYYVDDEGNVRDGRNNDKIYCEPKHVYDMVMATHLMNKHLRGKTLHSFLFSHFANISHAIIDWVQQFCSKCNKKGKIKPLKEYKRPDMYDKLLPMERIHIEVFEPFNGEAIEGKYSYVLLCRDYRSSFMWLLPLKSTKFKHLIPVVSSLFLTFARVPIFVTSSTLDKDDLYDICEEIASKYGLRIGLGLKSSARFHTGGILCIQYALNSYKKECLADWGKCLRYGPYRFNRRRNKRTKRKPVQVLLSEVPGHNAKFETKRERVIENTYSRNMFKMAGGKGLIYLEDVNTFALANEADNSCNNNG

Key:
[1] = biological target: B3; test: pull-down
[2] = biological target: the molecule itself; test: crystal structure
[3] = biological target: T1, Fob1 (wild type) without GST, purified from yeast (S. cerevisiae, UniProt O13329 1-566); test: ELISA
T1 sequence (looked up): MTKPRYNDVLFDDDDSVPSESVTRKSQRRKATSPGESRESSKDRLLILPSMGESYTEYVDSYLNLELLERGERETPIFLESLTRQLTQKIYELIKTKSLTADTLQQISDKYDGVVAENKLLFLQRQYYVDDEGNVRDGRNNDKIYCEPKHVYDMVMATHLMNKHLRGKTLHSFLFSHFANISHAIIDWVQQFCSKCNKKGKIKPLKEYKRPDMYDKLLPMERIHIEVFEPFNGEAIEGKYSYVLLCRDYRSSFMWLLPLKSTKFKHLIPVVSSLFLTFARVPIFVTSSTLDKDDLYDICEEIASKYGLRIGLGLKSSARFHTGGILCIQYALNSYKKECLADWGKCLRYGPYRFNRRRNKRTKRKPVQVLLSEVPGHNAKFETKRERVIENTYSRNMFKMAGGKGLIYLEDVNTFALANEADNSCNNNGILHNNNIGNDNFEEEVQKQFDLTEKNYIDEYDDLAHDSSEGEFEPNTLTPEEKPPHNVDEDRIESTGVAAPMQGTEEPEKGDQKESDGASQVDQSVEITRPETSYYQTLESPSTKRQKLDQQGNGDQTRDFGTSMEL

B1: C-terminal Fob1 with a kinase tag (from a pMAL fusion) (domain or fragment, S. cerevisiae, UniProt O13329 430-566, looked up)
chain: ILHNNNIGNDNFEEEVQKQFDLTEKNYIDEYDDLAHDSSEGEFEPNTLTPEEKPPHNVDEDRIESTGVAAPMQGTEEPEKGDQKESDGASQVDQSVEITRPETSYYQTLESPSTKRQKLDQQGNGDQTRDFGTSMEL
modifications: 32P-labeled
- binding result [1]: binds

B2: Reb1 protein of Schizosaccharomyces pombe (natural protein, UniProt Q9P6H9 1-504, looked up)
chain: MDTSVLNPELQIHGFIGVDSLQSSRKRKNDFDDFPLNKGLKTNNNDYSGSIEPKFSPALSIKEDGKNDRNFEALMSLQAQDSNLSEQNTSIHLDALASSSIALGNDNVDSSAFLSKVNKGVNAMRNSTSNQTNDSILISPSEITNMDPFLKGSARWTAEHWDYLERRMQNFCQTYSLDHTQVADSLHEKRLHGPLSSLVKLLVQEMPSFTRRTILRHLRALYNIPGYEKYSRKNSSGRGDFGVQETAIISQEVHNFIMDQGWSEYQFCNQIWAGKCPKTIRMFYSNLYKKLSHRDAKSIYHHVRRAYNPFEDRCVWSKEEDEELRKNVVEHGKCWTKIGRKMARMPNDCRDRWRDVVRFGDKLKRNAWSLEEETQLLQIVAELRNREDLSSDINWTLVAQMLGTRTRLQCRYKFQQLTKAASKFELQENVWLLERIYDSLLNNGGKIHWENIVKEANGRWTRDQMLFQFINLKKMIPSYDNLPLLEATKSAIDDFKVVLSGFSN
- stoichiometry N [2]: 2

Binder: B3
- binding result [3]: binds
